Where a chain is given by its changes, count along the chain named. Names and notes keep the numbering of the source.

Sequences and labels used below:
B1: GST–DAXX tower (183–251) E225A (domain or fragment)
chain: GSRRQIQRLEQLLALYVAEIRRLQEKELDLSELDDPDSAYLQAARLKRKLIRLFGRLCELKDCSSLTGR
B2: GST–DAXX tower (183–251) Q206A (domain or fragment)
chain: B1 chain with Q24A, A43E
B3: GST–DAXX tower (183–251) K229A (domain or fragment)
chain: B1 chain with A43E, K47A

In this test the target is wild-type histone H3.3–H4 tetramers (human, UniProt P84243 1-136; P62805 1-103). Description: pull-down.
As for B1, the binding result was “binds”. Consider B2, for which the binding result is “binds”.

As to B3, the binding result is listed as “binds”.
